Entries after “also recorded” stand apart in the source; their conditions may differ.
B1: pkLAP: commercially available microsomal LAP from porcine kidney (MEROPS>M1 family), Sigma (protein, UniProt P15145 2-963, looked up)
Aminopeptidase N: AKGFYISKALGILGILLGVAAVATIIALSVVYAQEKNKNAEHVPQAPTSPTITTTAAITLDQSKPWNRYRLPTTLLPDSYNVTLRPYLTPNADGLYIFKGKSIVRLLCQEPTDVIIIHSKKLNYTTQGHMVVLRGVGDSQVPEIDRTELVELTEYLVVHLKGSLQPGHMYEMESEFQGELADDLAGFYRSEYMEGNVKKVLATTQMQSTDARKSFPCFDEPAMKATFNITLIHPNNLTALSNMPPKGSSTPLAEDPNWSVTEFETTPVMSTYLLAYIVSEFQSVNETAQNGVLIRIWARPNAIAEGHGMYALNVTGPILNFFANHYNTSYPLPKSDQIALPDFNAGAMENWGLVTYRENALLFDPQSSSISNKERVVTVIAHELAHQWFGNLVTLAWWNDLWLNEGFASYVEYLGADHAEPTWNLKDLIVPGDVYRVMAVDALASSHPLTTPAEEVNTPAQISEMFDSISYSKGASVIRMLSNFLTEDLFKEGLASYLHAFAYQNTTYLDLWEHLQKAVDAQTSIRLPDTVRAIMDRWTLQMGFPVITVDTKTGNISQKHFLLDSESNVTRSSAFDYLWIVPISSIKNGVMQDHYWLRDVSQAQNDLFKTASDDWVLLNVNVTGYFQVNYDEDNWRMIQHQLQTNLSVIPVINRAQVIYDSFNLATAHMVPVTLALDNTLFLNGEKEYMPWQAALSSLSYFSLMFDRSEVYGPMKKYLRKQVEPLFQHFETLTKNWTERPENLMDQYSEINAISTACSNGLPQCENLAKTLFDQWMSDPENNPIHPNLRSTIYCNAIAQGGQDQWDFAWGQLQQAQLVNEADKLRSALACSNEVWLLNRYLGYTLNPDLIRKQDATSTINSIASNVIGQPLAWDFVQSNWKKLFQDYGGGSFSFSNLIQGVTRRFSSEFELQQLEQFKKNNMDVGFGSGTRALEQALEKTKANIKWVKENKEVVLNWFIEHS
B2: fuLAP2: A. fumigatus leucine aminopeptidase, 498 amino acid residues (SEQ ID NO: 9) (protein, listed as Aspergillus fumigatus)
chain: MKLLYLTSFASLAVANGPGWDWKPRVHPKVLPQMIHLWDLLQGAQQLEDFAYAYPERNRVFGGRAHEDTVNYLYRELKKTGYYDVYKQPQVHQWTRADQALTVDGQSYDATTMTYSPSVNATAPLAVVNNLGCVEADYPADLTGKIALISRGECTFATKSVLSAKAGAAAALVYNNIEGSMAGTLGGATSELGAYAPIAGISLADGQALIQMIQAGTVTANLWIDSQVENRTTYNVIAQTKGGDPNNVVALGGHTDSVEAGPGINDDGSGIISNLVVAKALTRFSVKNAVRFCFWTAEEFGLLGSNYYVNSLNATEQAKIRLYLNFDMIASPNYALMIYDGDGSAFNLTGPAGSAQIERLFEDYYTSIRKPFVPTEFNGRSDYQAFILNGIPAGGLFTGAEAIKTEEQAQLFGGQAGVALDANYHAKGDNMTNLNREAFLINSRATAFAVATYANSLDSIPPRNMTTVVKRSQLEQAMKRTPHTHTGGTGCYKDRVEQ

Assays:
[1] = tested on: gliadin 33mer (fragment 57-89 of gliadin MM1); experiment: Digestion of gliadin 33mer (RP-HPLC, ESI-MS); type: biochemical, wheat; settings: 37° C.; for digestion of gliadin 33mer, mixed with ruDPPIV: enzyme plus ruDPPIV (DPPIV)
[2] = tested on: gliadin 14mer PQPQLPYPQPQLPY (fragment 82-95 of α/β gliadin AIV); type: biochemical, wheat; settings: 4 h, 37° C.
[3] = type: biochemical; settings: for hydrolytic activity toward Ala-AMC in comparison to Leu-MCA used as a standard: substrate Ala-AMC 5 mM; for hydrolytic activity toward Ala-AMC in comparison to Leu-MCA used as a standard / hydrolytic activity toward Arg-AMC in comparison to Leu-MCA used as a standard / hydrolytic activity toward Asn-AMC in comparison to Leu-MCA used as a standard / hydrolytic activity toward Asp-AMC in comparison to Leu-MCA used as a standard / hydrolytic activity toward Cys-AMC in comparison to Leu-MCA used as a standard / hydrolytic activity toward Gln-AMC in comparison to Leu-MCA used as a standard / hydrolytic activity toward Glu-AMC in comparison to Leu-MCA used as a standard / hydrolytic activity toward Gly-AMC in comparison to Leu-MCA used as a standard / hydrolytic activity toward Gly-Pro-AMC in comparison to Leu-MCA used as a standard / hydrolytic activity toward His-AMC in comparison to Leu-MCA used as a standard / hydrolytic activity toward Hyp-AMC in comparison to Leu-MCA used as a standard / hydrolytic activity toward Ile-AMC in comparison to Leu-MCA used as a standard / hydrolytic activity toward Leu-AMC in comparison to Leu-MCA used as a standard / hydrolytic activity toward Lys-AMC in comparison to Leu-MCA used as a standard / hydrolytic activity toward Met-AMC in comparison to Leu-MCA used as a standard / hydrolytic activity toward Phe-AMC in comparison to Leu-MCA used as a standard / hydrolytic activity toward Pro-AMC in comparison to Leu-MCA used as a standard / hydrolytic activity toward Pyr-AMC in comparison to Leu-MCA used as a standard / hydrolytic activity toward Ser-AMC in comparison to Leu-MCA used as a standard / hydrolytic activity toward Thr-AMC in comparison to Leu-MCA used as a standard / hydrolytic activity toward Val-AMC in comparison to Leu-MCA used as a standard: 37° C., 60 min; for hydrolytic activity toward Arg-AMC in comparison to Leu-MCA used as a standard: substrate Arg-AMC 5 mM; for hydrolytic activity toward Asn-AMC in comparison to Leu-MCA used as a standard: substrate Asn-AMC 5 mM; for hydrolytic activity toward Asp-AMC in comparison to Leu-MCA used as a standard: substrate Asp-AMC 5 mM; for hydrolytic activity toward Cys-AMC in comparison to Leu-MCA used as a standard: substrate Cys-AMC 5 mM; for hydrolytic activity toward Gln-AMC in comparison to Leu-MCA used as a standard: substrate Gln-AMC 5 mM; for hydrolytic activity toward Glu-AMC in comparison to Leu-MCA used as a standard: substrate Glu-AMC 5 mM; for hydrolytic activity toward Gly-AMC in comparison to Leu-MCA used as a standard: substrate Gly-AMC 5 mM; for hydrolytic activity toward Gly-Pro-AMC in comparison to Leu-MCA used as a standard: substrate Gly-Pro-AMC 5 mM; for hydrolytic activity toward His-AMC in comparison to Leu-MCA used as a standard: substrate His-AMC 5 mM; for hydrolytic activity toward Hyp-AMC in comparison to Leu-MCA used as a standard: substrate Hyp-AMC 5 mM; for hydrolytic activity toward Ile-AMC in comparison to Leu-MCA used as a standard: substrate Ile-AMC 5 mM; for hydrolysis of Leu-AMC: substrate Leu-AMC; for hydrolytic activity toward Leu-AMC in comparison to Leu-MCA used as a standard: substrate Leu-AMC 5 mM; for hydrolytic activity toward Lys-AMC in comparison to Leu-MCA used as a standard: substrate Lys-AMC 5 mM; for hydrolytic activity toward Met-AMC in comparison to Leu-MCA used as a standard: substrate Met-AMC 5 mM; for hydrolytic activity toward Phe-AMC in comparison to Leu-MCA used as a standard: substrate Phe-AMC 5 mM; for hydrolytic activity toward Pro-AMC in comparison to Leu-MCA used as a standard: substrate Pro-AMC 5 mM; for hydrolytic activity toward Pyr-AMC in comparison to Leu-MCA used as a standard: substrate Pyr-AMC 5 mM; for hydrolytic activity toward Ser-AMC in comparison to Leu-MCA used as a standard: substrate Ser-AMC 5 mM; for hydrolytic activity toward Thr-AMC in comparison to Leu-MCA used as a standard: substrate Thr-AMC 5 mM; for hydrolytic activity toward Val-AMC in comparison to Leu-MCA used as a standard: substrate Val-AMC 5 mM
[4] = type: biochemical; settings: substrate Lys(Abz)Pro-PropNA 5 mM, 37° C., 60 min

| Molecule | digestion of gliadin 33mer, enzyme alone [1] | digestion of gliadin 33mer, mixed with ruDPPIV [1] | hydrolytic activity toward Ala-AMC in comparison to Leu-MCA used as a standard [3] [%] | hydrolytic activity toward Arg-AMC in comparison to Leu-MCA used as a standard [3] [%] | hydrolytic activity toward Asn-AMC in comparison to Leu-MCA used as a standard [3] [%] | hydrolytic activity toward Asp-AMC in comparison to Leu-MCA used as a standard [3] [%] | hydrolytic activity toward Cys-AMC in comparison to Leu-MCA used as a standard [3] [%] | hydrolytic activity toward Gln-AMC in comparison to Leu-MCA used as a standard [3] [%] | hydrolytic activity toward Glu-AMC in comparison to Leu-MCA used as a standard [3] [%] | hydrolytic activity toward Gly-AMC in comparison to Leu-MCA used as a standard [3] [%] | hydrolytic activity toward Gly-Pro-AMC in comparison to Leu-MCA used as a standard [3] [%] | hydrolytic activity toward His-AMC in comparison to Leu-MCA used as a standard [3] [%] | hydrolytic activity toward Hyp-AMC in comparison to Leu-MCA used as a standard [3] [%] | hydrolytic activity toward Ile-AMC in comparison to Leu-MCA used as a standard [3] [%] | hydrolysis of Leu-AMC [3] | hydrolytic activity toward Leu-AMC in comparison to Leu-MCA used as a standard [3] [%] | hydrolytic activity toward Lys-AMC in comparison to Leu-MCA used as a standard [3] [%] | hydrolytic activity toward Met-AMC in comparison to Leu-MCA used as a standard [3] [%] | hydrolytic activity toward Phe-AMC in comparison to Leu-MCA used as a standard [3] [%] | hydrolytic activity toward Pro-AMC in comparison to Leu-MCA used as a standard [3] [%] | other results |
| --- | --- | --- | --- | --- | --- | --- | --- | --- | --- | --- | --- | --- | --- | --- | --- | --- | --- | --- | --- | --- | --- |
| ruDPPIV: T. rubrum dipeptidylpeptidase IV (SEQ ID NO: 35) | not a substrate |  |  |  |  |  |  |  |  |  |  |  |  |  |  |  |  |  |  |  | digestion of gliadin 14mer, enzyme alone [2]: not able to hydrolyse |
| B1 | partial deletion of N-terminal Leu and C-terminal Phe | does not modify the profile | 584.7 | 174.8 | 33.9 | 0.9 | 35.5 | 50.7 | 4.7 | 74.8 | 16.7 | 17.6 | 1.7 | 6.3 | efficiently hydrolyzed; also recorded: common preference | 100.0 | 70.1 | 46.1 | 184.4 | 7.9 | hydrolytic activity toward Ala-AMC ([3]; compared to Leu-AMC): extremely high efficiency; hydrolytic activity toward Arg-AMC ([3]; compared to Leu-AMC): extremely high efficiency; hydrolytic activity toward Pyr-AMC in comparison to Leu-MCA used as a standard [3]: 0.0%; hydrolytic activity toward Ser-AMC in comparison to Leu-MCA used as a standard [3]: 24.6%; hydrolytic activity toward Thr-AMC in comparison to Leu-MCA used as a standard [3]: 4.4%; hydrolytic activity toward Val-AMC in comparison to Leu-MCA used as a standard [3]: 4.0%; hydrolytic activity toward Lys(Abz)Pro-PropNA in comparison to Leu-MCA used as a standard [4]: 0.0% |
| B2 |  | same HPLC pattern | 11.7 | 2.3 | 73.5 | 0.3 | 2.1 | 37.0 | 1.1 | 2.2 | 74.1 | 1.9 | 13.3 | 1.8 | efficiently hydrolyzed; also recorded: common preference | 100.0 | 2.3 | 89.5 | 8.9 | 7.4 | hydrolytic activity toward Pyr-AMC in comparison to Leu-MCA used as a standard [3]: 0.0%; hydrolytic activity toward Ser-AMC in comparison to Leu-MCA used as a standard [3]: 10.3%; hydrolytic activity toward Thr-AMC in comparison to Leu-MCA used as a standard [3]: 0.1%; hydrolytic activity toward Val-AMC in comparison to Leu-MCA used as a standard [3]: 0.8%; hydrolytic activity toward Lys(Abz)Pro-PropNA in comparison to Leu-MCA used as a standard [4]: 0.0% |

Source: patent US7354734B2, “Fungal proteins and nucleic acids encoding same” (priority 2003, dated 2008)
